Experimental data: IntAct's records for PubMed 31515488

B1: Uncharacterized protein C12orf50 (Homo sapiens), Q8NA57 (parent)
chain: MEMQQNCSISCFWETQPLGCVKISCIFYHSKPRNINGLFLPPSSNITLQKEIQEGIPLQSQSQEPLKPQENISRPIHHPLVLKTNFEEEEEVDEQNDASSLWTKTPEEIEEKRAIKEMCYKSGEYYRFHTPPDILSSKSMTPTAEKQLEKPLENGSELQEGDSLTVPTKLSQYERQGEIKTSLHGKPKTDIAAFENGGGDCYVPQRVIFLGVDESEALTEEKEITISKCSNTKDNKDSPHPKHSLTTRLVPTTHVLNATENISMKCREDPSSMNDVQPVKKPHFKGVKKRKWIYDEPQNFPNSGMQRAVQAPRPQNKMSYHRNNKNRNAENASYIHVQRDAVRTVALNAPSRSRPTHGSYNKVHANREPKPNLSPDKYTSTSYNDSAWRKRIPFSKTYSKSEKIYPEPRRNGSK
partner: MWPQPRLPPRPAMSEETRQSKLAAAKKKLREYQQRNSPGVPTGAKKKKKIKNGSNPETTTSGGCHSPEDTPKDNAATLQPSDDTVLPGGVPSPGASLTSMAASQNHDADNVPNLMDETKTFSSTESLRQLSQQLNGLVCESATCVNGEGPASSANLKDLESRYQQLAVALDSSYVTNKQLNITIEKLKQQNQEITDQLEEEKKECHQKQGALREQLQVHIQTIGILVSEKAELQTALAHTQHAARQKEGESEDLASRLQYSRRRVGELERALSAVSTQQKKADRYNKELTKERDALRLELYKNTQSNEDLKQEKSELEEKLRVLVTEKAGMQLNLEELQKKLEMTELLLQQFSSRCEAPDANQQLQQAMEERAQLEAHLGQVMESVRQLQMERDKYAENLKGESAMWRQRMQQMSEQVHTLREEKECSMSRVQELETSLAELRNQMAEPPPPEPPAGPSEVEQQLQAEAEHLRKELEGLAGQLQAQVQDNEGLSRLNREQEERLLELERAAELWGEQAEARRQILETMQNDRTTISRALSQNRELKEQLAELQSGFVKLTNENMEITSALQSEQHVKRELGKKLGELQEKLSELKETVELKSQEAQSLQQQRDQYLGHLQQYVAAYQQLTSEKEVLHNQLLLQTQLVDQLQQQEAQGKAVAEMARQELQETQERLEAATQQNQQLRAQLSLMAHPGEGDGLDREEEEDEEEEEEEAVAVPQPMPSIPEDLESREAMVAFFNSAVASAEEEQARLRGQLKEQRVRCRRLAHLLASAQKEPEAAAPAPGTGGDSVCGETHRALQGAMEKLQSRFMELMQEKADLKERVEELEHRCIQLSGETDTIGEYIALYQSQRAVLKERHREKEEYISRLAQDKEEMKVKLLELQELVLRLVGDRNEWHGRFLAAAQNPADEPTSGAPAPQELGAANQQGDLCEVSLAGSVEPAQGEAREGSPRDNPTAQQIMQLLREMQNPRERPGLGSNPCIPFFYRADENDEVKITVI
B2: Transmembrane 4 L6 family member 4 (Homo sapiens), P48230 (parent)
chain: MCTGGCARCLGGTLIPLAFFGFLANILLFFPGGKVIDDNDHLSQEIWFFGGILGSGVLMIFPALVFLGLKNNDCCGCCGNEGCGKRFAMFTSTIFAVVGFLGAGYSFIISAISINKGPKCLMANSTWGYPFHDGDYLNDEALWNKCREPLNVVPWNLTLFSILLVVGGIQMVLCAIQVVNGLLGTLCGDCQCCGCCGGDGPV
partner: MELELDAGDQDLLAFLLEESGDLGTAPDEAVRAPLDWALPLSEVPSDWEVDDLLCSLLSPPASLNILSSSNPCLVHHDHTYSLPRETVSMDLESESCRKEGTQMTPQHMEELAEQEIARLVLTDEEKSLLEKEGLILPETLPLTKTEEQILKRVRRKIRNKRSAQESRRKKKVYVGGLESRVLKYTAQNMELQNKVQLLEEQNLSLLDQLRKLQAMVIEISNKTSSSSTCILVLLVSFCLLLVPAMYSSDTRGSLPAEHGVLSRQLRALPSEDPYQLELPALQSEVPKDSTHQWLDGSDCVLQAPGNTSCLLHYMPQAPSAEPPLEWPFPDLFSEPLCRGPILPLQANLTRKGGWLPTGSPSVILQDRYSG
B3: Notch homolog 2 N-terminal-like protein A (Homo sapiens), Q7Z3S9 (parent)
chain: MCVTYHNGTGYCKCPEGFLGEYCQHRDPCEKNRCQNGGTCVAQAMLGKATCRCASGFTGEDCQYSTSHPCFVSRPCLNGGTCHMLSRDTYECTCQVGFTGKECQWTDACLSHPCANGSTCTTVANQFSCKCLTGFTGQKCETDVNECDIPGHCQHGGTCLNLPGSYQCQCLQGFTGQYCDSLYVPCAPSPCVNGGTCRQTGDFTFECNCLPETVRRGTELWERDREVWNGKEHDEN
partner: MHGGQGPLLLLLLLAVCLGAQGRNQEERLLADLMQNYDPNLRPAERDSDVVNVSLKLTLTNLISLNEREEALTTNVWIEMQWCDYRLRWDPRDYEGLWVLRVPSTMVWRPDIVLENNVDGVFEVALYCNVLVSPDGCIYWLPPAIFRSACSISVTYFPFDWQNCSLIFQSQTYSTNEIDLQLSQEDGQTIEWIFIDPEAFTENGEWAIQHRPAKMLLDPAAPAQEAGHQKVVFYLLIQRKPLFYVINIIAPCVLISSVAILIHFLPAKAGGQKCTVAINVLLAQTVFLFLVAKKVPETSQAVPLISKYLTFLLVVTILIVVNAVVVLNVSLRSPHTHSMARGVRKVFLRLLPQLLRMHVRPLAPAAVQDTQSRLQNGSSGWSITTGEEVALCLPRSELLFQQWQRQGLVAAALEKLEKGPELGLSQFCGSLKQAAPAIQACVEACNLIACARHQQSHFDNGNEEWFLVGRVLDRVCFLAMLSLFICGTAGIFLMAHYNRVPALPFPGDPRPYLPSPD
B4: Serine/arginine-rich splicing factor 4 (Homo sapiens), Q08170 (parent)
chain: MPRVYIGRLSYQARERDVERFFKGYGKILEVDLKNGYGFVEFDDLRDADDAVYELNGKDLCGERVIVEHARGPRRDGSYGSGRSGYGYRRSGRDKYGPPTRTEYRLIVENLSSRCSWQDLKDYMRQAGEVTYADAHKGRKNEGVIEFVSYSDMKRALEKLDGTEVNGRKIRLVEDKPGSRRRRSYSRSRSHSRSRSRSRHSRKSRSRSGSSKSSHSKSRSRSRSGSRSRSKSRSRSQSRSRSKKEKSRSPSKEKSRSRSHSAGKSRSKSKDQAEEKIQNNDNVGKPKSRSPSRHKSKSKSRSRSQERRVEEEKRGSVSRGRSQEKSLRQSRSRSRSKGGSRSRSRSRSKSKDKRKGRKRSREESRSRSRSRSKSERSRKRGSKRDSKAGSSKKKKKEDTDRSQSRSPSRSVSKEREHAKSESSQREGRGESENAGTNQETRSRSRSNSKSKPNLPSESRSRSKSASKTRSRSKSRSRSASRSPSRSRSRSHSRS
B5: Medium-chain acyl-CoA ligase ACSF2, mitochondrial (Homo sapiens), Q96CM8 (parent)
chain: MAVYVGMLRLGRLCAGSSGVLGARAALSRSWQEARLQGVRFLSSREVDRMVSTPIGGLSYVQGCTKKHLNSKTVGQCLETTAQRVPEREALVVLHEDVRLTFAQLKEEVDKAASGLLSIGLCKGDRLGMWGPNSYAWVLMQLATAQAGIILVSVNPAYQAMELEYVLKKVGCKALVFPKQFKTQQYYNVLKQICPEVENAQPGALKSQRLPDLTTVISVDAPLPGTLLLDEVVAAGSTRQHLDQLQYNQQFLSCHDPINIQFTSGTTGSPKGATLSHYNIVNNSNILGERLKLHEKTPEQLRMILPNPLYHCLGSVAGTMMCLMYGATLILASPIFNGKKALEAISRERGTFLYGTPTMFVDILNQPDFSSYDISTMCGGVIAGSPAPPELIRAIINKINMKDLVVAYGTTENSPVTFAHFPEDTVEQKAESVGRIMPHTEARIMNMEAGTLAKLNTPGELCIRGYCVMLGYWGEPQKTEEAVDQDKWYWTGDVATMNEQGFCKIVGRSKDMIIRGGENIYPAELEDFFHTHPKVQEVQVVGVKDDRMGEEICACIRLKDGEETTVEEIKAFCKGKISHFKIPKYIVFVTNYPLTISGKIQKFKLREQMERHLNL
partner: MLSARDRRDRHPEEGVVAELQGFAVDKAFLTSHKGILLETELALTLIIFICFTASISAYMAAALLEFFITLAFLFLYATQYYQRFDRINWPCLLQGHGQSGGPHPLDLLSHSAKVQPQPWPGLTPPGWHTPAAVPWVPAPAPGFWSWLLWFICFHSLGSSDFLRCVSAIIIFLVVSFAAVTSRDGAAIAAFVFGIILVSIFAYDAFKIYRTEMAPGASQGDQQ
B6: G1/S-specific cyclin-D3 (Homo sapiens), P30281 (parent)
chain: MELLCCEGTRHAPRAGPDPRLLGDQRVLQSLLRLEERYVPRASYFQCVQREIKPHMRKMLAYWMLEVCEEQRCEEEVFPLAMNYLDRYLSCVPTRKAQLQLLGAVCMLLASKLRETTPLTIEKLCIYTDHAVSPRQLRDWEVLVLGKLKWDLAAVIAHDFLAFILHRLSLPRDRQALVKKHAQTFLALCATDYTFAMYPPSMIATGSIGAAVQGLGACSMSGDELTELLAGITGTEVDCLRACQEQIEAALRESLREASQTSSSPAPKAPRGSSSQGPSQTSTPTDVTAIHL
partner: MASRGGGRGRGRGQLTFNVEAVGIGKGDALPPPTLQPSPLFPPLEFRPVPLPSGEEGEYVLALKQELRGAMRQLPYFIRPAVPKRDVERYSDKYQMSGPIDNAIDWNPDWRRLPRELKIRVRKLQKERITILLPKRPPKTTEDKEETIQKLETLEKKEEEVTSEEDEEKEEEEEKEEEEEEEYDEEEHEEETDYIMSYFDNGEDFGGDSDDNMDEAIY
B7: Geminin (Homo sapiens), O75496 (parent)
chain: MNPSMKQKQEEIKENIKNSSVPRRTLKMIQPSASGSLVGRENELSAGLSKRKHRNDHLTSTTSSPGVIVPESSENKNLGGVTQESFDLMIKENPSSQYWKEVAEKRRKALYEALKENEKLHKEIEQKDNEIARLKKENKELAEVAEHVQYMAELIERLNGEPLDNFESLDNQEFDSEEETVEDSLVEDSEIGTCAEGTVSSSTDAKPCI
B8: Centrosomal protein of 55 kDa (Homo sapiens), Q53EZ4 (parent)
chain: MSSRSTKDLIKSKWGSKPSNSKSETTLEKLKGEIAHLKTSVDEITSGKGKLTDKERHRLLEKIRVLEAEKEKNAYQLTEKDKEIQRLRDQLKARYSTTTLLEQLEETTREGERREQVLKALSEEKDVLKQQLSAATSRIAELESKTNTLRLSQTVAPNCFNSSINNIHEMEIQLKDALEKNQQWLVYDQQREVYVKGLLAKIFELEKKTETAAHSLPQQTKKPESEGYLQEEKQKCYNDLLASAKKDLEVERQTITQLSFELSEFRRKYEETQKEVHNLNQLLYSQRRADVQHLEDDRHKTEKIQKLREENDIARGKLEEEKKRSEELLSQVQFLYTSLLKQQEEQTRVALLEQQMQACTLDFENEKLDRQHVQHQLHVILKELRKARNQITQLESLKQLHEFAITEPLVTFQGETENREKVAASPKSPTAALNESLVECPKCNIQYPATEHRDLLVHVEYCSK
partner: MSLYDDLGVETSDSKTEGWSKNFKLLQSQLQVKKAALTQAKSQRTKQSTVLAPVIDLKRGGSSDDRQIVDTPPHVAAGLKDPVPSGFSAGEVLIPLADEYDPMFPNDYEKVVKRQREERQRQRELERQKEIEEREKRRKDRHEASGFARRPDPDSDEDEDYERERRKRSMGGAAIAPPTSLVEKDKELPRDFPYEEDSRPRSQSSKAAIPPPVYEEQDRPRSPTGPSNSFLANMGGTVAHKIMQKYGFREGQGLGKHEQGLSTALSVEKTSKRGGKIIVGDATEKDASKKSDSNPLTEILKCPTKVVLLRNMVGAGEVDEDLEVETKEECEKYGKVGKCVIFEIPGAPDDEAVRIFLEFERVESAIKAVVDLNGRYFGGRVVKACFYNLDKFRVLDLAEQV

Variants of: B1
Conditions: with goga2_human GOLGA2, Q08379

effect of a mutation on the interaction | Variant
disrupting interaction strength | W292R

Variants of: B2
Conditions: with creb3_human CREB3, O43889

effect of a mutation on the interaction | Variant
with no effect | A63V

Variants of: B3
Conditions: with achg_human CHRNG

effect of a mutation on the interaction | Variant
with no effect | A115T
with no effect | R74Q

Variants of: B4
Conditions: with srsf6_human SRSF6, Q13247
srsf6_human SRSF6, Q13247, sequence (Q13247 whole entry, looked up): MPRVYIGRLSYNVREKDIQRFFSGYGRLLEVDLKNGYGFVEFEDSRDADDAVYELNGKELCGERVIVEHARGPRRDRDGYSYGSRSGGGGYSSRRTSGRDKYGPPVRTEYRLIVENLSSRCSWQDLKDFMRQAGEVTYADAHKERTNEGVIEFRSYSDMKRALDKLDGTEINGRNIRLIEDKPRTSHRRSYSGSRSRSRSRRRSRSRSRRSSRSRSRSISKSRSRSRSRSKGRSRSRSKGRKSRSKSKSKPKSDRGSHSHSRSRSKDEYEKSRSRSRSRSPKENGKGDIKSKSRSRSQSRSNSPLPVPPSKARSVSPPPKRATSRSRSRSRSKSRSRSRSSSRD

effect of a mutation on the interaction | Variant
with no effect | G338A

Variants of: B5
Conditions: with cklf5_human CMTM5, Q96DZ9

effect of a mutation on the interaction | Variant
disrupting interaction strength | A34V
disrupting interaction strength | G19W

Variants of: B6
Conditions: with rpc7l_human POLR3GL

effect of a mutation on the interaction | Variant
with no effect | E253D

Variants of: B7
Conditions: with zn439_human ZNF439, Q8NDP4
zn439_human ZNF439, Q8NDP4, sequence (Q8NDP4 whole entry): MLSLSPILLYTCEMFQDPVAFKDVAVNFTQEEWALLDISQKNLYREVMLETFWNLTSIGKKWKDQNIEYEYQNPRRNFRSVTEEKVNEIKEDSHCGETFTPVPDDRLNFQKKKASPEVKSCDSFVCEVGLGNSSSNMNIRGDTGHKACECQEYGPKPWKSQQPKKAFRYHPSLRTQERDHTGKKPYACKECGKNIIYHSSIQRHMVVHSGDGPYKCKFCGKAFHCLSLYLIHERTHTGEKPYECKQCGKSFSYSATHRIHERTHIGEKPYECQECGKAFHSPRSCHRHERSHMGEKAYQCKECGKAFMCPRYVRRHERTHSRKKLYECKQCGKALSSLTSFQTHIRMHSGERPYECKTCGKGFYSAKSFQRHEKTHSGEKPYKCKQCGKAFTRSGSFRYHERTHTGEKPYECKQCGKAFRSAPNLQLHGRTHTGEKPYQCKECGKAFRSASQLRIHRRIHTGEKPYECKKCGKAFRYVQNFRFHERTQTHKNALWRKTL

effect of a mutation on the interaction | Variant
with no effect | N15H
with no effect | E167D

Variants of: B8
Conditions: with spf45_human RBM17, Q96I25

effect of a mutation on the interaction | Variant
with no effect | R348K
